The values below come from US20220031857A1 (OSSIANIX, published 2022).

Assay in all cases: phage ELISA
(In general: ELISA stands for enzyme-linked immunosorbent assay.)

The target in one assay is T1, human serum albumin (human, UniProt P02768 25-609).
T1 construct: Negative control protein; also called HSA

For assay [1], the target named is T2, recombinant human TfR1 (transferrin receptor 1) (human, UniProt P02786 89-760).
T2 construct: Bought recombinant His-tagged protein; also called hTfR1

The target of assay [2] is T3, recombinant mouse TfR1 (transferrin receptor 1) (mouse, UniProt Q62351 89-763).
T3 construct: Bought recombinant His-tagged protein; also called mTfR1

In another assay the target is T4, recombinant mouse TfR2 (mouse, UniProt Q9JKX3 103-798, limits assumed).
T4 construct: Negative control protein
T4 sequence (looked up): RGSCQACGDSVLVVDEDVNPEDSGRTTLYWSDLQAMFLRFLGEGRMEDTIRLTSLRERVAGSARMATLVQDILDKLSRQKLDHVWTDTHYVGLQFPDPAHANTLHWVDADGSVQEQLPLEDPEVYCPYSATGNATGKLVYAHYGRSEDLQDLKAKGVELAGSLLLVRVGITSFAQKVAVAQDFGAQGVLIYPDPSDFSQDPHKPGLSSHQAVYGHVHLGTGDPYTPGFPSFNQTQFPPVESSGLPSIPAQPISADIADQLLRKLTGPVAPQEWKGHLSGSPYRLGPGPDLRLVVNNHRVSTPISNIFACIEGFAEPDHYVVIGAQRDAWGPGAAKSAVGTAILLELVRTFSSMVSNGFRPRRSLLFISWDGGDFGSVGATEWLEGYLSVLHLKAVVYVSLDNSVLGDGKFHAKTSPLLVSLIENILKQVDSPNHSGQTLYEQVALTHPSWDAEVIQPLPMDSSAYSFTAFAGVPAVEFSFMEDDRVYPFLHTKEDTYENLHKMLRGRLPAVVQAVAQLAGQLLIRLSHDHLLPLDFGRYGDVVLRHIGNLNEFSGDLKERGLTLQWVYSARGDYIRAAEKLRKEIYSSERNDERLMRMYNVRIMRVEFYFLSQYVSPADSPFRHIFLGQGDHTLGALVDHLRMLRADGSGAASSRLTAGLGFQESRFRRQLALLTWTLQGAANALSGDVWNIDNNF

T3 sequence (Q62351 89-763 limits assumed): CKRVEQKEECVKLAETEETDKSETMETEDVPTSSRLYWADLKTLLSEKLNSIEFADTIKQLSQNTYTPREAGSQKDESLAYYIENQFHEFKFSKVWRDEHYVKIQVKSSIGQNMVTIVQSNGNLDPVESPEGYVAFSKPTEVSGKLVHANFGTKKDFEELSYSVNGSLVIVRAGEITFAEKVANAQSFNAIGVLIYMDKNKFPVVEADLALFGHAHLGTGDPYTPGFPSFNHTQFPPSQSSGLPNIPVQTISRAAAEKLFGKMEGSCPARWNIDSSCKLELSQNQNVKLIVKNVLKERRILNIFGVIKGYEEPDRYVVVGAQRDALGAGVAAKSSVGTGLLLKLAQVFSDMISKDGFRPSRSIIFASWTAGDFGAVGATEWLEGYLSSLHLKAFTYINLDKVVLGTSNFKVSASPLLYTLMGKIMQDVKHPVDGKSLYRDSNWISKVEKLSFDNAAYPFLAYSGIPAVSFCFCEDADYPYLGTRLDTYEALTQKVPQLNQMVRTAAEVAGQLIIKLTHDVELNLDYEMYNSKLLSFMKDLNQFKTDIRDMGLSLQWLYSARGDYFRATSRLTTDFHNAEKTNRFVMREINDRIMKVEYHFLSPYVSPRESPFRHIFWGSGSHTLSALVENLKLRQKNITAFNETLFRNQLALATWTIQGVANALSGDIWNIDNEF
T1 sequence (P02768 25-609 limits assumed): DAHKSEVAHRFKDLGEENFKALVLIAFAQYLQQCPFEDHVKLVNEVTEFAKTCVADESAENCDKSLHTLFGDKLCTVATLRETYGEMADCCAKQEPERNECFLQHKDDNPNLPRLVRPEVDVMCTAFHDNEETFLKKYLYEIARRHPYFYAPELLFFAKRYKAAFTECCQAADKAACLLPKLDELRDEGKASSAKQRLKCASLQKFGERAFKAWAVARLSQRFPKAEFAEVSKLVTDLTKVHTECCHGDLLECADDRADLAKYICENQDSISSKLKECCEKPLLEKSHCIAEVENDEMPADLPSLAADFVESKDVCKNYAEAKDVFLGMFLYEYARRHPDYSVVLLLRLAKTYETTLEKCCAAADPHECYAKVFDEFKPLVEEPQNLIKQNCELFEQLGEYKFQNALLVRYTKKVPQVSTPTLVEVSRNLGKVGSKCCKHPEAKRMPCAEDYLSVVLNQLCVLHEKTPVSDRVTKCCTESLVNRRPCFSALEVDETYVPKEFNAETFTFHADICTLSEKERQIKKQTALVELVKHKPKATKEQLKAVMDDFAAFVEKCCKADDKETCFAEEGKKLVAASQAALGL
T2 sequence (P02786 89-760 limits assumed): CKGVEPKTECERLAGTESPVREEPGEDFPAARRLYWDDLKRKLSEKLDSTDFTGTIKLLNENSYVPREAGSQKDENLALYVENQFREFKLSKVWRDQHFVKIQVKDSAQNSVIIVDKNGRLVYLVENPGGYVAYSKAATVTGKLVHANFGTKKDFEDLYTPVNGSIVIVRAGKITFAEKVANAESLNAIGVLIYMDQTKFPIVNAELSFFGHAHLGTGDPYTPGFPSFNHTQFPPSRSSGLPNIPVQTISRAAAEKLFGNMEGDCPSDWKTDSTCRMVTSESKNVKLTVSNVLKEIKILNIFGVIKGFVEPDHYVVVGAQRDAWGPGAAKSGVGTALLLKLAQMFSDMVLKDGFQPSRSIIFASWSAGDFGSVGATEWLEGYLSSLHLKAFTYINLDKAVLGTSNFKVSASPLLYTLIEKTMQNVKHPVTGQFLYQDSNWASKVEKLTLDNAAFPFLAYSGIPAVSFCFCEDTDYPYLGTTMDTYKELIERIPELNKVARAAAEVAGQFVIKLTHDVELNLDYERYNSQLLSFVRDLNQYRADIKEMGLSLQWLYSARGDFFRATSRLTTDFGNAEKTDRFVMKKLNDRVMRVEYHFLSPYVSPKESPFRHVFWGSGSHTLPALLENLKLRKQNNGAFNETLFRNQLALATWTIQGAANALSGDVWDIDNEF

B1: SEQ ID NO 8 (VNAR clone displayed on phage) (VNAR)
VNAR: ARVDQTPQTITKETGESLTINCVLRDSNCELSSTYWYRKKSGSTNEARISKGGRYVETVNSGSKSFSLRINDLTVEDSGTYRCNVQYFLCHFVGDVYGDGTAVTVNA
notes: shark VNAR domain on M13 phage; coat-protein fusion not described
With B1, the binding result with human serum albumin was “no binding”; in assay [1], “binds”; in assay [2] it was “binds”.

B2: SEQ ID NO 7 (VNAR clone displayed on phage) (VNAR)
VNAR: ARVDQTPQTITKETGESLTINCVLRDSNCELSSTYWYRKKSGSTNEARISKGGRYVETVNSGSKSFSLKINDLTVEDSGTYRCNVLTTDSYDLGDVYGDGTVVTVNA
notes: shark VNAR domain on M13 phage; coat-protein fusion not described; also called clone 7
Turning to B2, the binding result with human serum albumin and with recombinant mouse TfR2 was “no binding” in each case.

B3: SEQ ID NO 39 (VNAR clone displayed on phage) (VNAR)
chain: ARVDQTPQTITKETGESLTINCVLRDSNCALSSTLWYRTKSGSRNEESISKGGRYVETVNSGSKSFSLKINDLTVEDSGTYRCNVQGMVYDGSSFWWCDVYGDSTAVTVNA
notes: shark VNAR domain on M13 phage; coat-protein fusion not described; also called clone 39
With B3, the binding result with human serum albumin and with recombinant mouse TfR2 was “no binding” throughout.

B4: SEQ ID NO 38 (VNAR clone displayed on phage) (VNAR)
VNAR: ARVDQTPQTITKETGESLTINCVLRDNNCALSSTLWYRTKSGSRNEESISKGGRYVETVNSGSKSFSLRINDLTVEDSGTYRCKVWQDSLSQPCESGCLDVYGGGTAVTVNA
notes: as for B1
As to B4, the binding result with recombinant mouse TfR2 is “no binding”; in assay [1], “binds”; in assay [2], “binds”.

B5: SEQ ID NO 6 (VNAR clone displayed on phage) (VNAR)
VNAR: ARVDQTPQTITKETGESLTINCVLRDSNCALSSTYWYRKKSDSTNEESISKGGRYVETVNSGSKSFSLRINDLTVEDSGTYRCNVQWWLRCGYFKDVYGGGTVVTVNA
notes: as for B1
Regarding B5, the binding result with human serum albumin is listed as “no binding”; in assay [1], “binds”; in assay [2] it was “binds”.

B6: SEQ ID NO 41 (VNAR clone displayed on phage) (VNAR)
VNAR: ARVDQTPQTITKETGESLTINCVLRDSNCALSSTLWYRTKSGSRNEESISKGGRYVETVNSGSKSFSLKINDLTVEDSGTYRCKVCRQCCVATCDDLSLLCDVYGDGTAVTVNA
notes: as for B1
Consider B6, for which the binding result in the assay with recombinant mouse TfR2 is reported as “no binding”; in assay [1] it was “binds”; in assay [2], “binds”.

B7: SEQ ID NO 12 (VNAR clone displayed on phage) (VNAR)
VNAR: ARVDQTPQTITKETGESLTINCVLRDSICALSSTHWYRKKSGSTNEESISKGGRYVETVNSGSKSFSLRINDLTVEDSGTYRCKVVRSGVGPCWADVYGGGTAVTVNA
notes: shark VNAR domain on M13 phage; coat-protein fusion not described; also called clone 12
For B7, the binding result with human serum albumin and with recombinant mouse TfR2 was “no binding” in each case.

B8: SEQ ID NO 4 (VNAR clone displayed on phage) (VNAR)
VNAR: ARVDQTPQTITKETGESLTINCVLRDSNCALSSTYWYRKKSGSTNEENISKGGRYVETVNSGSKSFSLKINDLTVEDSGTYRCNVQFTAALWCEAVLDVYGGGTVVTVNA
notes: as for B1
As for B8, the binding result was “no binding” with human serum albumin, “binds” in assay [1] and “binds” in assay [2].

B9: SEQ ID NO 40 (VNAR clone displayed on phage) (VNAR)
VNAR: ARVDQTPQTITKETGESLTINCVLRDSNCALSSTLWYRTKSGSRNEESISKGGRYVETVNSGSKSFSLRINDLTVEDSGTYRCNVQFSYNCNFWKDVYGGGTDVTVNA
notes: as for B1
Take B9: the binding result is “no binding” with recombinant mouse TfR2, “binds” in assay [1] and “binds” in assay [2].

B10: SEQ ID NO 10 (VNAR clone displayed on phage) (VNAR)
VNAR: ARVDQTPQTITKETGESLTINCVLRDSNCALSSTYWYRKKSGSTNEENISKGGRYVETVNSGSKSFSLRINDLTVEDSGTYRCNVVQYPSYNNYFWCDVYGDGTAVTVNA
notes: shark VNAR domain on M13 phage; coat-protein fusion not described; also called clone 10
Regarding B10, the binding result in the assay with human serum albumin and with recombinant mouse TfR2 was “no binding” each time.

B11: SEQ ID NO 9 (VNAR clone displayed on phage) (VNAR)
chain: ARVDQTPQTITKETGESLTINCVLRDSNCALPSTYWYRKKSGSTNEARISKGGRYVETVNSGSKSFSLRINDLTVEDSGTIDARYRLSASAVLYQSYVDVYGGGTAVTVNA
notes: as for B1
Turning to B11, the binding result with human serum albumin is given as “no binding”; in assay [1] it was “binds”; in assay [2] it was “binds”.

B12: SEQ ID NO 2 (VNAR clone displayed on phage) (VNAR)
VNAR: ARVDQTPQTITKETGESLTINCVLRDNNCALSTTYWYRKKSGSTNEENISKGGRYVETVNSGSKSFSLKINDLTVEDSGTYRCNVFGVDNGWWCDVYGGGTVVTVNA
notes: shark VNAR domain on M13 phage; coat-protein fusion not described; also called clone 2
B12: the binding result with human serum albumin and in the assay with recombinant mouse TfR2 was “no binding” in each case.

B13: SEQ ID NO 42 (VNAR clone displayed on phage) (VNAR)
VNAR: ARVDQTPRSVTKETGESLTINCVLRDASYALGSTCWYRKKSGSTNEESISKGGRYVETVNSGSKSFSLRINDLTVEDGGTYRCGVCEMQLIAVDSCDHTLDDGLCGGVYAACGDGTAVTVNA
notes: as for B1
With B13, the binding result with human serum albumin was “no binding”; in the assay with recombinant mouse TfR2 it was “no binding”; in assay [1] it was “binds”; in assay [2], “binds”.

B14: SEQ ID NO 5 (VNAR clone displayed on phage) (VNAR)
VNAR: ARVDQTPQTITKETGESLTINCVLRDSNCALSSTYWYRKKSGSTNEENISKGGRYVETVNSGSKSFSLKINDLTVEDSGTYRCNVQKGQHLQCHVAVQDVYGGGTAVTVNA
notes: as for B1
B14: the binding result is recorded as “no binding” with human serum albumin, “binds” in assay [1] and “binds” in assay [2].

B15: SEQ ID NO 3 (VNAR clone displayed on phage) (VNAR)
VNAR: ARVDQTPQTITKETGESLTINCVLRDNNCALSTTYWYRKKSGSTNEENISKGGRYVETVNSGSKSFSLKINDLTVEDSGTYRCNVTGYFRSTCLWRDVYGGGTAVTVNA
notes: as for B1
In the case of B15, the binding result with human serum albumin was “no binding”; in assay [1], “binds”; in assay [2] it was “binds”.

B16: SEQ ID NO 1 (VNAR clone displayed on phage) (VNAR)
VNAR: ARVDQTPQTITKETGESLTINCVLRDNNCALSTTYWYRKKSGSTNEENISKGGRYVETVNSGSKSFSLKINDLTVEDSGTYRCNVRDVQACGNDWVWLDVYGGGTVVTVNA
notes: shark VNAR domain on M13 phage; coat-protein fusion not described; also called clone 1
As to B16, the binding result with human serum albumin and with recombinant mouse TfR2 was “no binding” each time.

B17: SEQ ID NO 43 (VNAR clone displayed on phage) (VNAR)
VNAR: ARVDQTPRSVTKETGESLTINCVLRDASYALGSTCWYRKKSGSTNEESISKGGRYVETVNSGSKSFSLRINDLTVEDGGTYRCGVYGGTHQGLCGCDWQLRFSLCGDGRAACGDGTAVTVNA
notes: as for B1
Regarding B17, the binding result in the assay with human serum albumin is reported as “no binding”; with recombinant mouse TfR2, “no binding”; in assay [1], “binds”; in assay [2] it was “binds”.

B18: SEQ ID NO 46 (VNAR clone displayed on phage) (VNAR)
VNAR: ARVDQTPRSVTKETGESLTINCVLRDASYALGSTCWYRKKSGSTNEESISKGGRYVETVNSGSKSFSLRINDLTVEDGGTYRCGVCSDYGLQTTGQQAACGDGTAVTVNA
notes: as for B1
For B18, the binding result in the assay with human serum albumin and with recombinant mouse TfR2 was “no binding” each time.

B19: SEQ ID NO 11 (VNAR clone displayed on phage) (VNAR)
VNAR: ARVDQTPQTITKETGESLTINCVLRDSNCALPSTHWYRKKSGSTNEESISKGGRYVETVNSGSKSFSLRINDLTVEDSGTYRCKVLNFFTHTCVQVQKYDVYGGGTAVTVNA
notes: shark VNAR domain on M13 phage; coat-protein fusion not described; also called clone 11
Turning to B19, the binding result was “no binding” with human serum albumin, “no binding” with recombinant mouse TfR2 and “binds” in assay [1].
